Source: paper PMC9114490

Molecular target: Purified human C1q, P02745;P02746;P02747
Test: FACS-based C1q binding assay
Settings: for response: read off a plot

Substance	EC50 [µM]	response (parent: est. 42000) [MFI]	further results
4A8 Parental E345R; E430G	0.0261		response (parent: est. 65000): 750000 MFI
EY6A Parental E345R; E430G	0.0421		response (parent: est. 75000): 830000 MFI
REGN10933 Parental E345R; E430G	0.004	800000	
REGN10987 Parental E345R; E430G	0.0105		response (parent: est. 85000): 830000 MFI
S230 parental IgG1 E345R; E430G			response (parent: est. 30000): 50000 MFI
S309 parental IgG1 E345R; E430G	0.01	800000	
